The target in experiment [1] is T1, human CCR8 (human, UniProt P51685 1-355). The experiment is described as follows: cell-based or functional assay.
In experiment [2] the target is T1, human CCR8. Description: cell-based or functional assay. The source holds these as a separate data set.
The target in experiment [3] is T1, human CCR8. Description: cell-based or functional assay. This is another data set of the same source.
Experiment [4] deals with T1, human CCR8. The experiment is described as follows: flow cytometry, chimeric IgG on CHO-hCCR8 cells. As for the experimental part: (§1) 5×10⁴ CHO-hCCR8 or CHO-cynoCCR8 cells were added per well in a 96-well U-shaped plate and centrifuged to discard the supernatant, 100 μL of a gradiently diluted anti-CCR8 chimeric antibody or anti-KLH isotype control antibody was added per well and the mixture was incubated on ice for 60 minutes. After the unbound primary antibody was washed away, 50 μL of a secondary antibody AlexaFluro647 anti-human IgG (Jackson Immuno Research #109-606-170) was added per well and the mixture was incubated on ice for 30 minutes. After the washing, 50 μL of 5 μg/mL of a PI/BSA solution was added to each well and the mixture was incubated on ice for 5 minutes. Then excess secondary antibody was washed away with 0.5% BSA, the cells were resuspended by adding a PBS solution, and binding of the antibody to the cells was detected using a flow cytometer (Intellicyte iQue). The fluorescence value of a Pi-negative cell population was analyzed. Cell-binding curves were fitted by Graphpad Prism 7 (FIG. 2). The chimeric antibodies of 87D8, 102H5, 109F6, 110G2, 113B3, 139A9, 144D2, etc. all bound with high affinities to human CCR8+ cells CHO-hCCR8 and cynomolgus monkey CCR8+ cells CHO-cynoCCR8.

A further experiment has as its target T2, cynomolgus monkey CCR8 (cynomolgus monkey, UniProt O97665 1-356 (rhesus entry)).
T2 construct: Full-length, stably expressed on CHO cells; also called cynoCCR8; CHO-cynoCCR8
Description: flow cytometry, chimeric IgG on CHO-cynoCCR8 cells. As for the experimental part:
as §1
On the technique in general: In flow cytometry, cells or beads pass a laser one at a time.

For another experiment, the target named is T3, human CCR4 (human, UniProt P51679 1-360).
T3 construct: also called hCCR4; human CCR4+ cells
T3 sequence: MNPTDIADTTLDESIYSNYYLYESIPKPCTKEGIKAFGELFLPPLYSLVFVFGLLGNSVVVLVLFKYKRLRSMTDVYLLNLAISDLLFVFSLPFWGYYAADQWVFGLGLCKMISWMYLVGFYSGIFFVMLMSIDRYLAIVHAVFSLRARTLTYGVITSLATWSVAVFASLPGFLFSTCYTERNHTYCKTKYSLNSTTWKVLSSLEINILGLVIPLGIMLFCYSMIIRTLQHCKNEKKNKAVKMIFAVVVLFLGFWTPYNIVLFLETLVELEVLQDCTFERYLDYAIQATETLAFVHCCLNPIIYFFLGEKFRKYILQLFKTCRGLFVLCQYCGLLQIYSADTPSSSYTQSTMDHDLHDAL
The experiment is described as follows: flow cytometry of purified Fab on cells stably expressing human CCR4. The procedure:
The positive clones obtained in example 1 were re-induced to express and purified to obtain a Fab antibody. The binding to cells stably expressing human CCR8, cynomolgus monkey CCR8 and human CCR4 was tested respectively, 5×10⁴ test cells were added to each well of a 96-well U-shaped plate and centrifuged to discard the supernatant, 100 μL/well of the purified Fab antibody was added and the mixture was incubated on ice for 60 minutes. After washing away the unbound primary antibody, 50 μL of a secondary antibody solution (Anti-human IgG, F(ab′)2-AF647, Jackson Immuno Research) was added to each well and the mixture was incubated on ice for 30 minutes. After washing, 50 μL of a PI/BSA solution at 5 μg/mL was added to each well and the mixture was incubated on ice for 5 minutes. Then excess secondary antibody was washed away with 0.5% BSA, the cells were resuspended by adding a PBS solution, and binding of the antibody to the cells was detected using a flow cytometer (Intellicyte iQue).

The target of experiment [5] is T1, human CCR8. The experiment is described as follows: flow cytometry, purified Fab on CHO-hCCR8 cells.

The values below come from US20250215097A1 (BEIJING TIANNUOJIANCHENG PHARMA TECH, published 2025).

T1 sequence (P51685 whole entry): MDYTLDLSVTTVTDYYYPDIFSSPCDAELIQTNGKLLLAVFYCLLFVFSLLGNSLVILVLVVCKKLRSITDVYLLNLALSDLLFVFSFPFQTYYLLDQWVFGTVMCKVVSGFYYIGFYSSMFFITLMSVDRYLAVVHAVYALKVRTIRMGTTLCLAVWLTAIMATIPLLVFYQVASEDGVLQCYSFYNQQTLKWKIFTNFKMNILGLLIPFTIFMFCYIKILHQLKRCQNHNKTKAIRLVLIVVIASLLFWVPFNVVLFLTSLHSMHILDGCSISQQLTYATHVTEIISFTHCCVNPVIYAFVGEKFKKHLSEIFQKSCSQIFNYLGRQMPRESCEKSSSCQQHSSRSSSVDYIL
T2 sequence (O97665 other isoform, or with tags, fused parts or gaps): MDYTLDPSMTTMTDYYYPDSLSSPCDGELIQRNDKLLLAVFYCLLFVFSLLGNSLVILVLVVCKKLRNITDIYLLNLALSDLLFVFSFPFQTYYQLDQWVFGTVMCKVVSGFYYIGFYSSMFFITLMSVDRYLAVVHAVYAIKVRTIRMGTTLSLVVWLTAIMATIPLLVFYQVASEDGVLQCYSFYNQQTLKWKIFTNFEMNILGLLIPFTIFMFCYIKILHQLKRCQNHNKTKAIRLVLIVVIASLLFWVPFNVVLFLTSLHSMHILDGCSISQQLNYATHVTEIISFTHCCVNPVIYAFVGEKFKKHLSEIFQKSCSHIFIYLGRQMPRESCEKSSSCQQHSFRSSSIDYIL

B1: h87D8 H1K1 hIgG1 e5 (antibody, V domains shown)
VH: EVQLVESGGGLVQPGGSLRLSCAASGFTFNTYAMNWVRQAPGKGLEWVARIRSKSNNYATYYADSVKGRFTISRDDSQSSLYLQMNSLRAEDTAVYYCVRGKEAGAYYAMDYWGQGTLVTVSS
VL: DIVMTQSPLSLPVTPGEPASISCRSSKSLLHSNGNTYLYWFLQKPGQSPQLLIYRMSNLASGVPDRFSGSGSGTDFTLKISRVEAEDVGVYYCMQHLEYPLTFGQGTKLEIKR
On to B1, for which, in the experiment with human CCR8 [1], the “ADCC maximal lysis rate, NK92-CD16A effectors, HEK293-hCCR8 targets” value was found to be 58% and the “half-maximal effective concentration EC50 of inhibition of the Ca2+ current signal, CHO-hCCR8 cells, CCL1 stimulus” value was 5.59 nM. Also, in the experiment with human CCR8 [2], the “ADCC EC50 (nM), PBMC FcγRIIIA158F/F effectors, HEK293-hCCR8 targets” value was found to be 0.01 nM; the “ADCC EC50 (nM), PBMC FcγRIIIA158V/V effectors, HEK293-hCCR8 targets” value came to 0.01 nM; the “ADCC maximal lysis rate, PBMC FcγRIIIA158F/F effectors, HEK293-hCCR8 targets” value was 70%; the “ADCC maximal lysis rate, PBMC FcγRIIIA158V/V effectors, HEK293-hCCR8 targets” value turned out to be 72%.

B2: 102H5 anti-CCR8 chimeric antibody (antibody, V domains shown)
VH: QVQLVESNGRLVQPKGSLKLSCAASGFTFNAYAMNWVRQAPGKGLEWVARIRSKSNNYATYYADSVKDRFTISRDDSQNMLYLQMNNLKTEDTAMYFCVRQKFGARGYYALDFWGQGATVTVSS
VL: DIVLTQSPASLAVSLGQRATISCRASESVEYYGTSLMQWYQQKPGQPPKLLIYAASNVESGVPARFSGSGSGTDFSLNIHPVEEDDIAMYFCQQSRKVPYTFGGGTKLEIK
Broadly, the EC50 is the concentration needed to bring the measured effect to its halfway point. B2: the “ADCC EC50 (nM), NK92-CD16A effectors, HEK293-hCCR8 targets, LDH release” value (“ADCC EC50 (nM), NK92-CD16A effectors” for short) with human CCR8 [3] was 0.06 nM. In addition, the values for the EC50 with human CCR8 [4] and with cynomolgus monkey CCR8 were 0.46 nM and 1.18 nM, respectively.

B3: 109F6 Fab antibody (Fab, V domains shown)
VH: QVQLVESNGRLVQPKGSLKLSCAASGFTFNAYAMNWVRQAPGKGLEWVARIRSKSNNYATYYADSVKDRFTISRDDSQSMLYLQMNNLKTEDTAMYFCVRQKFGARGYYALDFWGQGASVTVSS
VL: DIVLTQSPASLAVSLGQRATISCRASKSVSTSGYSYMHWYQQKPGQPPKLLIYLASNLESGVPARFSGSGSGTDFTLNIHPVEEEDAATYYCQHSRELPPTFGGGTKLEIK
notes: also called clone 109F6
As to B3, in the experiment with human CCR4, the binding result was “no binding”.

B4: 110G2 Fab antibody (Fab, V domains shown)
VH: QVQLVESNGRLVQPKGSLKLSCAASGFTFNAYAMNWVRQAPGKGLEWVARIRSKSNNYATYYADSVKDRFTISRDDSQSMLYLQMNNLKTEDTAMYFCVRQKFGARGYYALDFWGQGASVTVSS
VL: EILLTQSPAIMSASPGEKVTMTCRASSSVSSSYLHWYQQKSGASPKLWIYSTSNLASGVPARFSGSGSGTSYSLTISSVEAEDAATYYCQQYSGYPYTFGGGTKLEIK
notes: also called clone 110G2
In the case of B4, the binding result with human CCR4 is on record as “no binding”.

B5: 139A9 Fab antibody (Fab, V domains shown)
VH: QVQLVESNGRLVQPKGSLKLSCAASGFTFNAYAMNWVRQAPGKGLEWVARIRSKSNNYATYYADSVKDRFTISRDDSQSMLYLQMNNLKTEDTAMYFCVRQKFGARGYYALDFWGQGASVTVSS
VL: ENVLTQSPTTMAASPGEKITITCSASSSISSNYLHWYQQKPGFSPKLLIYRTSNLASGVPARFSGSGSGTSYSLTIGTMEAEDVATYYCQQGSSIPLTFGAGTKLELK
notes: also called clone 139A9
In the case of B5, the binding result with human CCR4 is on record as “no binding”.

B6: 109F6 anti-CCR8 chimeric antibody (antibody, V domains shown)
VH: QVQLVESNGRLVQPKGSLKLSCAASGFTFNAYAMNWVRQAPGKGLEWVARIRSKSNNYATYYADSVKDRFTISRDDSQSMLYLQMNNLKTEDTAMYFCVRQKFGARGYYALDFWGQGASVTVSS
VL: DIVLTQSPASLAVSLGQRATISCRASKSVSTSGYSYMHWYQQKPGQPPKLLIYLASNLESGVPARFSGSGSGTDFTLNIHPVEEEDAATYYCQHSRELPPTFGGGTKLEIK
Regarding B6, the “ADCC EC50 (nM), NK92-CD16A effectors” value in the experiment with human CCR8 [3] stood at 0.07 nM. The values for the EC50 with human CCR8 [4] and in the experiment with cynomolgus monkey CCR8 were 0.2 nM and 0.74 nM, respectively.

B7: 102H5 Fab antibody (Fab, V domains shown)
VH: QVQLVESNGRLVQPKGSLKLSCAASGFTFNAYAMNWVRQAPGKGLEWVARIRSKSNNYATYYADSVKDRFTISRDDSQNMLYLQMNNLKTEDTAMYFCVRQKFGARGYYALDFWGQGATVTVSS
VL: DIVLTQSPASLAVSLGQRATISCRASESVEYYGTSLMQWYQQKPGQPPKLLIYAASNVESGVPARFSGSGSGTDFSLNIHPVEEDDIAMYFCQQSRKVPYTFGGGTKLEIK
notes: also called clone 102H5
For B7, the binding result with human CCR4 is “no binding”.

B8: 116F10 Fab antibody (Fab, V domains shown)
VH: EVQLVESYGGLVQPKGSLKLSCAASGFTFNAYAMNWVRQAPGKGLEWVARIRSKSNNYATYYADSVKDRFTISRDDSQNILYLQMNNLKIEDTAMYFCVRQKFGSRGYYALDFWGQGASVTVSS
VL: EIVLTQSPAIMSVSPGEKVTMTCRASSSVSSSYLHWYQQKSGASPKLWIYSTSTLASGVPARFSGSGSGTSYSLTISSVEAEDAATYYCQHYTVYPLGTFGGGTKLEIK
notes: also called clone 116F10
Consider B8, for which the binding result in the experiment with human CCR4 is on record as “no binding”.

B9: 113B3 Fab antibody (Fab, V domains shown)
VH: EVQLVESNGGLVQPKGSLKLSCAASGFTFNAYAMNWVRQAPGKGLEWVARIRSKSNNYATYYADSVKDRFTISRDDSQSMLYLQMNNLKTEDTAMYFCVRQKFGSRGYYALDFWGQGATVTVSS
VL: QIVLTQSPAIMSASLGERVTMTCTASSSVSSSYLHWYQQKPGSSPKLWIYSTSNLASGVPARFSGSGSGTSYSLTISSMEAEDAATYYCHQYHRSPRTFGGGTRLEIK
notes: also called clone 113B3
For B9, the binding result in the experiment with human CCR4 is listed as “no binding”.

B10: 144D2 Fab antibody (Fab, V domains shown)
VH: EVQLVESGGGLVQPKGSLKLSCAASGFTFNAFAMNWVRQAPGKGLEWVARIRSKSNNYATYYADSVIDRFTISRDDSQSMLYLQMNNLKTEDTAMYYCVRGKEAGAYYAMDYWGQGTSVTVSS
VL: DIVMTQAAPSVPVTPGESVSISCRSSKSLLHSNGNTYLYWFLQRPGQSPQLLIYRMSNLASGVPDRFSGSGSGTAFTLRISRVEAEDVGVYYCMQHLEYPLTFGAGTKLEIK
notes: also called clone 144D2; 144D2 (female parent)
For B10, in the experiment with human CCR8 [5], a half-maximal effect (EC50) was put at 2.8 nM. In addition, the binding result in the experiment with human CCR4 is “no binding”.

B11: 30A7 anti-CCR8 chimeric antibody (antibody, V domains shown)
VH: QVQLVESGGGLVQPKGSLKLSCAASGFTFNTYAMNWVRQAPGKGLEWVARIRSKSNYYATYYADSVKDRFTISRDDSQSMLYLQMNNLKTEDTAMYYCLRGKEAGAYYAMDYWGQGTSVTVSS
VL: DIVMTQAAPSVPVTPGESVSISCRSSKSLLHSNGNTYLYWFLQRPGQSPQLLIYRMSNLASGVPDRFSGSGSGTAFTLRISRVEAEDVGVYYCMQHLEYPFTFGAGTKLEIK
As to B11, the “ADCC EC50 (nM), NK92-CD16A effectors” value with human CCR8 [3] was found to be 0.21 nM. In the experiment with human CCR8 [4], this molecule registered an EC50 of 3.39 nM.

B12: 87D8 Fab antibody (Fab, V domains shown)
VH: EVQLVESGGGLVQPKGSLRLSCAASGFTFNTYAMNWVRQAPGKGLEWIARIRSKSNNYATYYADSVKDRFTISRDDSQSMLYLQMNNLKTEDTAMYYCVRGKEAGAYYAMDYWGQGTSVTVSS
VL: DIVMTQAAPSVPVTPGESVSISCRSSKSLLHSNGNTYLYWFLQRPGQSPQLLIYRMSNLASGVPDRFSGSGSGTAFTLRISRVEAEDVGVYYCMQHLEYPLTFGAGTKLELK
notes: also called clone 87D8
Take B12: the binding result with human CCR4 is “no binding”.

B13: 29A8 anti-CCR8 chimeric antibody (antibody, V domains shown)
VH: EVQLVESGGGLVQPKGSLKLSCAASGFTFNAFAMNWVRQAPGKGLEWVARIRSKSNNYATYYADSVIDRFTISRDDSQSMLYLQMNNLKTEDTAMYYCVRGKEAGAYYAMDYWGQGTSVTVSS
VL: DIVMTQAAPSVPVTPGESVSISCRSSKSLLHSNGNTYLYWFLQRPGQSPQLLIYRMSNLASGVPDRFSGSGSGTAFTLRISKVEAEDVGVYYCMQHLEYPFTFGGGTKLEIK
In the case of B13, in the experiment with human CCR8 [3], the “ADCC EC50 (nM), NK92-CD16A effectors” value turned out to be 0.1 nM. The midpoint of the response with human CCR8 [4], the EC50, lay at 3.24 nM.
